Measurements reported in US20140370022A1 (SAMSUNG LIFE PUBLIC WELFARE FOUNDATION, published 2014).

Columns and labels:
Control (BSA) = target: T1, Control (BSA) (Bos taurus, UniProt P02769); assay: ELISA, 5 ug/ml scFv on coated Control (BSA), anti-HA-HRP
T1 construct: coated as control protein; also called BSA protein
Description: (§1) By using the produced scFv protein, the binding affinity to human/mouse c-Met extracellular domain+Fc protein was confirmed through ELISA. Human/mouse c-Met coated on a 96-well plate were treated with 5 μg/ml of scFv proteins (1F12, 2A01, 2C03, and 2D05), followed by binding at room temperature for 1 hour. After that, the plate was washed three times with 0.1% TBST solution, and then treated with anti-HA-HRP antibody for 1 hour, to detect the scFv proteins that bind to c-Met. After that, the plate was washed three times, and then treated with 10 μl of TMB substrate, followed by standing for 5 minutes. The reaction was stopped by using sulfuric acid solution, and then the absorbance was determined by ELISA reader. As a result, it was verified that each scFv protein had significant binding affinity to human and mouse c-Met proteins as compared with the control group (IgG, BSA) (FIG. 5A). In addition, after the cells were treated with 500 ng/ml of each scFv protein using human c-Met protein to which Fc region was not bound, the same ELISA assay was conducted.

[1] = target: c-Met protein (species and construct not stated); assay: SPR, Biacore T100, c-Met amine-coupled on CM5 chip, scFv as analyte
Chain of c-Met protein (species and construct not stated) (P08581 whole entry, the tested form may be a part): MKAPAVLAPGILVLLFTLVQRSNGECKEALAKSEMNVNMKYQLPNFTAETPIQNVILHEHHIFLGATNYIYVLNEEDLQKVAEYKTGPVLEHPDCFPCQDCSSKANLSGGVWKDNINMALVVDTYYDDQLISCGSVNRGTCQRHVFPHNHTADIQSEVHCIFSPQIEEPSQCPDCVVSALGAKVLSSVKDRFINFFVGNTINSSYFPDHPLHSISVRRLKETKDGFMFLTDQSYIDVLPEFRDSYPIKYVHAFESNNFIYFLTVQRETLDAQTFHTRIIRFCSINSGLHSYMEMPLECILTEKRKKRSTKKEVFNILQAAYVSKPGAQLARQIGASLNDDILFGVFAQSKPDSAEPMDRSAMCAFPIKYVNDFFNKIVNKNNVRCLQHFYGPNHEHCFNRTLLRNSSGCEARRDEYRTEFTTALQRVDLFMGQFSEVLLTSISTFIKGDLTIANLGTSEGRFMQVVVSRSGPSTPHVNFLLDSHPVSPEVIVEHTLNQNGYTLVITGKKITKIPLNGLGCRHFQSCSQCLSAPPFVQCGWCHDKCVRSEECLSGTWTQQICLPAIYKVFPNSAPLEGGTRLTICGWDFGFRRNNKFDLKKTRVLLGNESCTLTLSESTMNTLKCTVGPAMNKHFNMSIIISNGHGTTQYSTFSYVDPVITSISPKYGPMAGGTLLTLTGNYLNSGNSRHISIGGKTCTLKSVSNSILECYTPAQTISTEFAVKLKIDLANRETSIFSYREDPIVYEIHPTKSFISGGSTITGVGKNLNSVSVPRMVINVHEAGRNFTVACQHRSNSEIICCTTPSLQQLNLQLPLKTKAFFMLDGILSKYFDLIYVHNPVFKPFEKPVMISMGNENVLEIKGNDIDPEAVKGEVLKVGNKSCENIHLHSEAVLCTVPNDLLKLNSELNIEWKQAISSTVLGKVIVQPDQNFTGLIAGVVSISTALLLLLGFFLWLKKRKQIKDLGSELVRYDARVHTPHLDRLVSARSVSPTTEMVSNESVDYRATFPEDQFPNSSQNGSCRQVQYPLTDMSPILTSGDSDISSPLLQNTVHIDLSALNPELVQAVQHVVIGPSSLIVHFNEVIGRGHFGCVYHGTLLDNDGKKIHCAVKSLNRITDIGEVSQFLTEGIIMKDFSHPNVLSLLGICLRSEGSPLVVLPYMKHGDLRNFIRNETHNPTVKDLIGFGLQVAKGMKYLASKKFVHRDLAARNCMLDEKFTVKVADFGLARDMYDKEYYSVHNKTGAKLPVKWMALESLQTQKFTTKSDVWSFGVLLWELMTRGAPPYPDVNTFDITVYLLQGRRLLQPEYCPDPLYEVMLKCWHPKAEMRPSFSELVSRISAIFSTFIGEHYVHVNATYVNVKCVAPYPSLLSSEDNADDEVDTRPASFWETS
Excerpt: For the confirmation of more accurate binding affinity (coupling constant), the binding affinity of respective clones to c-Met was verified through surface plasmon resonance analysis. Respective antibody fragments were expressed in the host E. coli, followed by purification, and then dialyzed with PBS solution. Biacore T100 (GE healthcare) was used for the analysis. The c-Met protein was fixed to a dextran medium through an amine coupling reaction in the CM5 sensor chip. […] Based on these values, kinetic analysis was conducted through the BIA-evaluation program. As a result, the KD values of the 1F12 and 2A01 clones were measured to be 6⁻⁹×10⁻⁸ M and the Kd value of 2C03 was verified to be 10⁻⁷ M (Table 4).

[2] = target: T2, mouse c-Met-Fc protein (mouse c-Met extracellular domain + Fc) (mouse, UniProt P16056 25-931); assay: ELISA, periplasmic scFv-pIII extract on coated mouse c-Met-Fc, anti-HA-HRP, OD450 as ratio to control coat (BSA, IgG)
T2 construct: extracellular domain; not shown: Fc region of IgG
T2 sequence (P16056 25-931): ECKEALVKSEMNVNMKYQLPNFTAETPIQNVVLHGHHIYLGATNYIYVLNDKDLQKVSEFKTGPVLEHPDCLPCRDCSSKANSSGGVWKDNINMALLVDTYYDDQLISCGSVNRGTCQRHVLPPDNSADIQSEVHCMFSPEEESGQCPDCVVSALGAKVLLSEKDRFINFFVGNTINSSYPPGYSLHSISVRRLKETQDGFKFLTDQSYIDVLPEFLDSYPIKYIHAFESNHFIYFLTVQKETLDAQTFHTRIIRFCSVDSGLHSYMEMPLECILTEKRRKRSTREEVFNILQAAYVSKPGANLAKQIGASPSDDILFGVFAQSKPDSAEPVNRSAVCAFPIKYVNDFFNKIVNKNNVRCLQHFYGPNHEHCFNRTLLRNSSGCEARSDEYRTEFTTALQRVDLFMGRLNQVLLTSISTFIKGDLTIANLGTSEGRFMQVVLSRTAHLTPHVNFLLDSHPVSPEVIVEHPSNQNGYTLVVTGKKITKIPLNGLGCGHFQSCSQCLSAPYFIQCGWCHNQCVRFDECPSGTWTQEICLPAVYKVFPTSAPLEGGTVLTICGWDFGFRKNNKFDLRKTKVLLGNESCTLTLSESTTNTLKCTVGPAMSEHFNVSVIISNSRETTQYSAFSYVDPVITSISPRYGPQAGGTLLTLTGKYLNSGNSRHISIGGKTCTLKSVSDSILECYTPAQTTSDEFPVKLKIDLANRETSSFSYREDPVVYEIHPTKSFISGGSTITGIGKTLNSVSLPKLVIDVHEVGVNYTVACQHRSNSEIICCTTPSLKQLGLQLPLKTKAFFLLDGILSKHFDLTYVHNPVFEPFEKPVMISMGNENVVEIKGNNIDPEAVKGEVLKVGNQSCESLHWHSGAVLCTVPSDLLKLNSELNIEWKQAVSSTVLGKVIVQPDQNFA
Description: After a total of six rounds of panning with mouse/human c-Met were finished, the phage particles collected from the final round of panning were confirmed as colonies in the medium through infection of host cells. These colonies were taken and inoculated in a 96 well plate containing 200 μl of SB/ampicillin media and then cultured (37° C., within 3 hours). After that, for the induction of scFv-pIII protein expression, 1 mM final concentration IPTG was added to each well, followed by culturing overnight at 30° C. After that, the cultured plate was centrifuged to discard the supernatant. Then, for the collection of periplasmic fractions from the cultured cells in each well, the culture plate was treated with 40 μl of TES solution (20% w/v sucrose, 50 mM Tris, 1 mM EDTA, pH 8.0) maintained at 4° C., and then kept to stand at 4° C. for 30 minutes, so that the cells were lysed. After that, the cells were treated with 60 μl of 0.2×TES solution, and then kept to stand for 30 minutes. Finally, the plate was centrifuged and the supernatant was collected, thereby producing scFv-pIII protein on a small scale.
At the same time, a 96 well plate coated with human or mouse c-Met-Fc protein was prepared, and then 25 μl of aliquot was taken from the collected periplasmic fractions and added to each well, followed by binding for 1 hour. Then, after three or four times of washing procedures were performed using TBST, anti-HA-HRP antibody was added, followed by binding for 1 hour. The plate was again washed, followed by induction of a color development reaction (TMB substrate), and then the values of color development were measured at O.D. 450 nm. […] Since antibody in which c-Met extracellular domain binds to Fc region of IgG was used at the time of the panning, commercialized antibody (Erbitux) or BSA protein was used as a control group in order to exclude the phage particles that bind to Fc region.

[3] = target: T3, human c-Met-Fc protein (human c-Met extracellular domain + Fc) (human, UniProt P08581 25-932); assay: ELISA, scFv titrated 2-fold from 500 ng/ml on coated human c-Met, anti-HA-HRP, no HGF
T3 construct: extracellular domain; also called c-Met extracellular domain+Fc protein; not shown: Fc region of IgG
T3 sequence (P08581 25-932): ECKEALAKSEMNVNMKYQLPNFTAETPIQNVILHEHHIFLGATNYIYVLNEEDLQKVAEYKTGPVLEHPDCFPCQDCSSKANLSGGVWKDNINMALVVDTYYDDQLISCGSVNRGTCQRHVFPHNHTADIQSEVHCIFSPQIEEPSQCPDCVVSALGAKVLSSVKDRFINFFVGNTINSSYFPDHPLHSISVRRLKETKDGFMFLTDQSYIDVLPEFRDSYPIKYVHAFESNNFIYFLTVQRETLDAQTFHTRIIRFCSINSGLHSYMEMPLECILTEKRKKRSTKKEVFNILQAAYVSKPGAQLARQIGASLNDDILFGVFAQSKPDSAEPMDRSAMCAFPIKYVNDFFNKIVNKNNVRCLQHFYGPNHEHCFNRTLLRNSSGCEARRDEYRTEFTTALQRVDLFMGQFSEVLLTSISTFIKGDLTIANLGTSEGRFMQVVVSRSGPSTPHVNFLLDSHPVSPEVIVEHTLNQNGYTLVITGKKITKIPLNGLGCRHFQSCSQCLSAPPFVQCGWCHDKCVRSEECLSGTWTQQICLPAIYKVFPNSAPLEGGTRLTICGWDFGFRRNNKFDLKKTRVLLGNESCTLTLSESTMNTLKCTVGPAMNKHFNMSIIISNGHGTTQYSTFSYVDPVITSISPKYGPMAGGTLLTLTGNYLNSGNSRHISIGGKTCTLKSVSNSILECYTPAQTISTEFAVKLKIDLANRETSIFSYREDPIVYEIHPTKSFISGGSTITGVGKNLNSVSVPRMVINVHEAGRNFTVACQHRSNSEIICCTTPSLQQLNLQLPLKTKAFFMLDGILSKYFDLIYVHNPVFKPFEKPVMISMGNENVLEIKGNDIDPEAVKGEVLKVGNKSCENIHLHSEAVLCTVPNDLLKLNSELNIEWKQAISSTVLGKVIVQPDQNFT
Description: as §1, with “Human/mouse c-Met coated on a 96-well plate were treated with 5 μg/ml of scFv proteins (1F12, 2A01, 2C03, and 2D05), followed by binding at room temperature for 1 hour.” left out
For the verification of whether the selected scFv proteins have competitive binding affinity with the hepatocyte growth factor, which is the ligand of c-Met, the ligand competitive ELISA experiment was conducted. As in examples 2 and 4, the coated human c-Met was prepared, and respective wells were treated with samples in which each scFv protein was diluted at a 2-fold dilution from 500 ng/ml to about 1 ng/ml. After the treatment, the experiment procedure was conducted as in Example 4.

T1 sequence (P02769 25-607 limits assumed): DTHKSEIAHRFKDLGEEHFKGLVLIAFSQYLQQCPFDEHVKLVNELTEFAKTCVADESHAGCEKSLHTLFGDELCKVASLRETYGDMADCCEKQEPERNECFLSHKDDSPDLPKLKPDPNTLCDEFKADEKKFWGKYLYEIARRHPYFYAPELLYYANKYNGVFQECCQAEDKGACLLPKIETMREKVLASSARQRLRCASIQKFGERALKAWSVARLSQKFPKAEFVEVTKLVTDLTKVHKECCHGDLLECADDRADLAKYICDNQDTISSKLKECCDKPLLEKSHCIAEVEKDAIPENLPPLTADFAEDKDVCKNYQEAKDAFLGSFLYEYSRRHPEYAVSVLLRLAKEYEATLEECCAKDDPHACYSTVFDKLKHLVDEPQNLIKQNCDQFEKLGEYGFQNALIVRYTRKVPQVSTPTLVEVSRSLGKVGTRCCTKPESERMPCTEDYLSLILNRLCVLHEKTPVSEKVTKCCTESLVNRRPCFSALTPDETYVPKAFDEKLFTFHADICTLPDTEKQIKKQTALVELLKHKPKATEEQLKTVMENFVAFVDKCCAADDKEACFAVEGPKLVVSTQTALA

Binder | binding result (Control (BSA)) | Kd [1] | koff [1] | kon [1] | binding result [2] | EC50 (read off the curve) [3]
2C03 scFv antibody fragment (scFv, Soluble scFv of about 28 kDa expressed in E. coli TOP10F' and purified over Ni-NTA; also called 2C03 clone; 2CO3) scFv: EVQLLESGGGLVQPGGSLRLSCAASGFTFSNYAMSWVRQAPGKGLEWVSAISYDSGSIYYADSVKGRFTISRDNSKNTLYLQMNSLRAEDTAVYYCAKAARSCRNWSCSYANGMDVWGQGTLVTVSSGGGGSGGGGSGGGGSQSVLTQPPSASGTPGQRVTISCTGSSSNIGSNYVSWYRQLPGTAPKLLIYSDSNRPSGVPDRFSGSKSGTSASLAISGLRSEDEADYYCGSWDDSLSGYVFGGGTKLTVL | no binding (tested: 5 ug/ml) | 239 nM | 0.186 s⁻¹ | 776000 M⁻¹ s⁻¹ | binds | 
1F12 scFv antibody fragment (scFv, Soluble scFv of about 28 kDa expressed in E. coli TOP10F' and purified over Ni-NTA; also called 1F12 clone) scFv: EVQLLESGGGLVQPGGSLRLSCAASGFTFSNYAMSWVRQAPGKGLEWVSGISYSGGSTYYADSVKGRFTISRDNSKNTLYLQMNSLRAEDTAVYYCAKASRSCQRPACSYANGMDVWGQGTLVTVSSGGGGSGGGGSGGGGSQSVLTQPPSASGTPGQRVTISCTGSSSNIGNNYVTWYQQLPGTAPKLLIYYNNHRPSGVPDRFSGSKSGTSASLAISGLQSEDEADYYCGSWDYSLSAYVFGGGTKLTVL | no binding (tested: 5 ug/ml) | 93.3 nM |  |  | binds | ~0.04 µg/mL
2A01 scFv antibody fragment (scFv, Soluble scFv of about 28 kDa expressed in E. coli TOP10F' and purified over Ni-NTA; also called 2A01 clone; 2A1) scFv: EVQLLESGGGLVQTGGSLRLSCAASGFTFSSYDMSWVRRAPGKGLEWVSWISHGGSSISYADSVKGRFTISRDNSKNTLYLQMNSLRAEDTAVYYCAKDAYPIRQETFDYWGQGTLVTVSSGGGGSGGGGSGGGGSQSVLTQPPSASGTPGQRVTISCSGSSSNIGNNDVSWYQQLPGTAPKLLIYPDSQRPSGVPDRFSGSKSGTSASLAISGLRSEDEADYYCASWDSSLSGYVFGGGTKLTVL | no binding (tested: 5 ug/ml) | 66 nM | 0.153 s⁻¹ | 2.32e+06 M⁻¹ s⁻¹ | binds | 
